The target of experiment [1] is T1, human alpha CGRP (SEQ ID NO: 80) (human, not fully specified).
T1 peptide: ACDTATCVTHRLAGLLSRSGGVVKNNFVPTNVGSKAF
Put plainly: cell-based or functional assay.

Experiment [2] concerns the target T2, human beta CGRP (SEQ ID NO: 81) (human, not fully specified).
T2 peptide: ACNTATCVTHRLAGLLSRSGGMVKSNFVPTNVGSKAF
As to the kind of experiment: cell-based or functional assay.

Experiment [3] has as its target T3, rat alpha CGRP (SEQ ID NO: 82) (rat).
T3 peptide: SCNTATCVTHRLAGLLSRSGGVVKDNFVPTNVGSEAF
Put plainly: cell-based or functional assay.

Experiment [4] concerns the target T4, rat beta CGRP (SEQ ID NO: 83) (rat, not fully specified).
T4 peptide: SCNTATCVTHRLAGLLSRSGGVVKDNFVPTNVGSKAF
As to the kind of experiment: cell-based or functional assay.

The target in experiment [5] is T1, human alpha CGRP (SEQ ID NO: 80). As to the kind of experiment: SPR, 37 C, mutein captured, CGRP analyte. In short, it runs like this: (§1)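 Biotinylated lipocalin muteins were captured on streptavidin-oligo CAP chip, and CGRP was injected at 30, 3 and 0.3 nM or at a single 25 nM at 37 °C (180 s association, 5400 s dissociation) in HBS-EP+. Double-referenced sensorgrams were globally fit to a 1:1 model for ka and kd.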
On the technique in general: Surface plasmon resonance follows binding to a sensor surface in real time, without labels.

Experiment [6] deals with T2, human beta CGRP (SEQ ID NO: 81). Put plainly: SPR, 37 C, mutein captured, CGRP analyte. In short, it runs like this:
as §1

In experiment [7] the target is T3, rat alpha CGRP (SEQ ID NO: 82). Put plainly: SPR, 37 C, mutein captured, CGRP analyte. In a few lines: as §1
Experiment [8] has as its target T4, rat beta CGRP (SEQ ID NO: 83). Put plainly: SPR, 37 C, mutein captured, CGRP analyte. In short, it runs like this:
as §1

Experiment [9] concerns the target T1, human alpha CGRP (SEQ ID NO: 80). As to the kind of experiment: SPR Biacore 37 °C, mutein captured as ligand, ha CGRP (1-37) injected, 1:1 fit; repeat run 130208_NAN-DS-047 (not the run of Table 2) [contd]. How it is done: (§2) The Biotin CAPture Kit (GE Healthcare) was used to immobilize biotinylated lipocalin muteins to a chip surface. Muteins were biotinylated using standard NHS chemistry. Undiluted Biotin CAPture Reagent (streptavidin conjugated with ss-DNA oligo) was captured on a Sensor Chip CAP with the pre-immobilized complementary ss-DNA oligo. Thereafter, biotinylated muteins at 1 μg/mL were applied for 300 s at a flow rate of 5 μL/min.
(§3) CGRP species were applied in three concentrations of 30 nM, 3 nM and 0.3 nM at a flow rate of 30 μL/min or in a single concentration of 25 nM per cycle as shown in FIG. 2. The dilutions were injected with association times of 180 s and dissociation times of 5400 sec to obtain ka and kd information. Regeneration of the chip surface was achieved by injecting 6 M Guanidinium-HCl+0.25 M NaOH (120 s) with a flow rate of 10 μL/min. Injection of regeneration solutions was followed by an extra wash step with HBS-EP+(1×; BR-1006-69; GE Healthcare) running buffer and a stabilization period of 120 s.
(§4) The data were double-referenced by subtraction of the corresponding signals measured for the control channel (loaded with Biotin CAPture reagent only) and by subtraction of buffer injections from the binding responses. Association rate constant ka and dissociation rate constant kd for the binding reaction were determined using Biacore T200 Evaluation Software V2.0 for data processing and kinetic fitting. The data were globally fit with 1:1 binding model.

In experiment [10] the target is T2, human beta CGRP (SEQ ID NO: 81). As to the kind of experiment: SPR Biacore 37 °C, mutein captured as ligand, hb CGRP (1-37) injected, 1:1 fit; repeat run 130208_NAN-DS-047 (not the run of Table 2) [contd]. The method, then:
as §2, §3, §4

For experiment [11], the target named is T3, rat alpha CGRP (SEQ ID NO: 82). Put plainly: SPR Biacore 37 °C, mutein captured as ligand, ra CGRP (1-37) injected, 1:1 fit; repeat run 130208_NAN-DS-047 (not the run of Table 2) [contd]. The method, then:
as §2, §3, §4

For experiment [12], the target named is T4, rat beta CGRP (SEQ ID NO: 83). As to the kind of experiment: SPR Biacore 37 °C, mutein captured as ligand, rb CGRP (1-37) injected, 1:1 fit; repeat run 130208_NAN-DS-047 (not the run of Table 2) [contd]. The method, then: as §2, §3, §4
The target is the same in experiment [13]. As to the kind of experiment: SPR Biacore 37 °C, mutein captured as ligand, rb CGRP sample PL1830 injected, 1:1 fit; repeat run 130903_NAN-DS-058 (not the run of Table 2) [contd].
Experiment [14] concerns the target T1, human alpha CGRP (SEQ ID NO: 80). As to the kind of experiment: SPR Biacore 37 °C, mutein captured as ligand, sample PL1827 (ha CGRP) injected, 1:1 fit; repeat run 130903_NAN-DS-058 (not the run of Table 2) [contd]. How it is done: as §2, §3, §4
Experiment [15] concerns the target T2, human beta CGRP (SEQ ID NO: 81). Put plainly: SPR Biacore 37 °C, mutein captured as ligand, sample PL1828 (hb CGRP) injected, 1:1 fit; repeat run 130903_NAN-DS-058 (not the run of Table 2) [contd]. How it is done:
as §2
(§5) CGRP species were applied in three concentrations of 30 nM, 3 nM and 0.3 nM at a flow rate of 30 μL/min or in a single concentration of 25 nM per cycle as shown in FIG. 2. The dilutions were injected with association times of 180 s and dissociation times of 5400 sec to obtain ka and kd information. Regeneration of the chip surface was achieved by injecting 6 M Guanidinium-HCl+0.25 M NaOH (120 s) with a flow rate of 10 μL/min. […]
(§6) The data were double-referenced by subtraction of the corresponding signals measured for the control channel (loaded with Biotin CAPture reagent only) and by subtraction of buffer injections from the binding responses. Association rate constant ka and dissociation rate constant kd for the binding reaction were determined using Biacore T200 Evaluation Software V2.0 for data processing and kinetic fitting. […]

The target of experiment [16] is T3, rat alpha CGRP (SEQ ID NO: 82). Put plainly: SPR Biacore 37 °C, mutein captured as ligand, sample PL1829 (ra CGRP) injected, 1:1 fit; repeat run 130903_NAN-DS-058 (not the run of Table 2) [contd]. How it is done: as §2, §5, §6
Experiment [17] concerns the target T4, rat beta CGRP (SEQ ID NO: 83). As to the kind of experiment: SPR Biacore 37 °C, mutein captured as ligand, sample PL1830 (rb CGRP) injected, 1:1 fit; repeat run 130903_NAN-DS-058 (not the run of Table 2) [contd]. How it is done:
as §2, §5, §6

For experiment [18], the target named is T1, human alpha CGRP (SEQ ID NO: 80). As to the kind of experiment: SPR Biacore 37 °C, protein captured as ligand, ha CGRP (1-37) injected, 1:1 fit of a flat sensorgram; run 130301_NAN-DS-049. The method, then: as §2, §5, §6
The target in experiment [19] is T2, human beta CGRP (SEQ ID NO: 81). Put plainly: SPR Biacore 37 °C, protein captured as ligand, hb CGRP (1-37) injected, 1:1 fit of a flat sensorgram; run 130301_NAN-DS-049. How it is done: as §2, §5, §6
Experiment [20] has as its target T3, rat alpha CGRP (SEQ ID NO: 82). Put plainly: SPR Biacore 37 °C, protein captured as ligand, ra CGRP (1-37) injected, 1:1 fit of a flat sensorgram; run 130301_NAN-DS-049. The method, then: as §2, §5, §6
The target in experiment [21] is T4, rat beta CGRP (SEQ ID NO: 83). Put plainly: SPR Biacore 37 °C, protein captured as ligand, rb CGRP (1-37) injected, 1:1 fit of a flat sensorgram; run 130301_NAN-DS-049. How it is done:
as §2, §5, §6

The target in experiment [22] is T1, human alpha CGRP (SEQ ID NO: 80). Put plainly: SPR Biacore 37 °C, protein captured as ligand, ha CGRP (1-37) injected, 1:1 fit of a flat sensorgram; run 130208_NAN-DS-047 [contd]. How it is done: as §2, §5, §6
Experiment [23] concerns the target T2, human beta CGRP (SEQ ID NO: 81). Put plainly: SPR Biacore 37 °C, protein captured as ligand, hb CGRP (1-37) injected, 1:1 fit of a flat sensorgram; run 130208_NAN-DS-047 [contd]. The method, then: as §2, §5, §6
The target in experiment [24] is T3, rat alpha CGRP (SEQ ID NO: 82). Put plainly: SPR Biacore 37 °C, protein captured as ligand, ra CGRP (1-37) injected, 1:1 fit of a flat sensorgram; run 130208_NAN-DS-047 [contd]. The method, then: as §2, §5, §6
The target of experiment [25] is T4, rat beta CGRP (SEQ ID NO: 83). Put plainly: SPR Biacore 37 °C, protein captured as ligand, rb CGRP (1-37) injected, 1:1 fit of a flat sensorgram; run 130208_NAN-DS-047 [contd]. The method, then:
as §2, §5, §6

B1: lipocalin mutein SEQ ID NO: 11 (designed binder)
chain: QDSTSDLIPAPPLSKVPLQQNFQDNQFHGKWYVVGWAGNTLLREDKDPIKMQAIIYELKEDRSYNVTWVYFSEKKCNYHIETFVPGSQPGEFTLGTIKSYPGETPILVRVVSTNYNQHAMVFFKGVNQNREIFEIILYGRTKELTNELKENFIRFSKSLGLPENHIVFPVPIDQCIDGSAWSHPQFEK
notes: biotinylated by NHS chemistry for capture in SPR
With B1, the “IC50, CGRP-induced cAMP production, SK-N-MC cells” value in [1] came to 0.11 nM; in experiment [2], 0.22 nM. The “IC50, CGRP-induced cAMP production, L6 cells” value was 0.08 nM in experiment [3] and 0.06 nM in experiment [4]. Moreover, the Kd – broadly, the equilibrium constant for the complex coming apart – in [5] turned out to be 0.015 nM; in [6], 0.007 nM; in experiment [7] it was 0.08 nM; in [8], 0.042 nM. The koff (usually a measure of how fast the partners let go of each other) was 4.55e-05 s⁻¹ in experiment [5]; 5.63e-05 s⁻¹ in [6]; 7.6e-05 s⁻¹ in experiment [7]; 7.3e-05 s⁻¹ in experiment [8]; 5.31e-05 s⁻¹ in [9]; 4.61e-05 s⁻¹ in [10]. Also, the off-rate (koff) turned out to be 7.72e-05 s⁻¹ in [11]; 5.56e-05 s⁻¹ in experiment [12]; 6.38e-05 s⁻¹ in experiment [13]; 6.55e-05 s⁻¹ in [14]; 3.73e-05 s⁻¹ in [15]; 8.08e-05 s⁻¹ in [16]. Besides, the kon (as a rule, a measure of how fast the partners come together) in [5] stood at 3.08e+06 M⁻¹ s⁻¹; in experiment [6], 7.91e+06 M⁻¹ s⁻¹; in experiment [7], 984000 M⁻¹ s⁻¹; in [8], 1.74e+06 M⁻¹ s⁻¹; in experiment [9], 2.02e+06 M⁻¹ s⁻¹; in experiment [10] it was 4.14e+06 M⁻¹ s⁻¹. Also, the kon in experiment [11] amounted to 867000 M⁻¹ s⁻¹; in experiment [12] it was 969000 M⁻¹ s⁻¹; in experiment [14] it was 1.76e+06 M⁻¹ s⁻¹; in [15], 2.41e+06 M⁻¹ s⁻¹; in [16], 1.58e+06 M⁻¹ s⁻¹; in [17], 1.75e+06 M⁻¹ s⁻¹.

B2: hNGAL wildtype (SEQ ID NO:1) (other)
chain: QDSTSDLIPAPPLSKVPLQQNFQDNQFHGKWYVVGLAGNAILREDKDPQKMYATIYELKEDKSYNVTSVLFRKKKCDYWIRTFVPGSQPGEFTLGNIKSYPGLTSYLVRVVSTNYNQHAMVFFKKVSQNREYFKITLYGRTKELTSELKENFIRFSKSLGLPENHIVFPVPIDQCIDG
notes: also called human lipocalin 2; human Lcn 2
Consider B2, for which the koff in [18] stood at 0.00221 s⁻¹; in experiment [19], 0.0185 s⁻¹; in experiment [20], 0.00105 s⁻¹; in experiment [21], 0.00233 s⁻¹; in experiment [22], 0.00234 s⁻¹; in experiment [23], 0.000159 s⁻¹. Moreover, the koff in experiment [24] was determined as 0.00259 s⁻¹; in experiment [25] it was 0.00414 s⁻¹. In addition, the kon in experiment [18] came to 1200 M⁻¹ s⁻¹; in experiment [20], 970000 M⁻¹ s⁻¹; in experiment [21] it was 1.62e+06 M⁻¹ s⁻¹; in experiment [22] it was 342000 M⁻¹ s⁻¹; in [23], 347000 M⁻¹ s⁻¹; in experiment [24] it was 1640 M⁻¹ s⁻¹. In [25], this molecule returned a kon of 1.1e+06 M⁻¹ s⁻¹.
